# Test: soluble on expression in E. coli; label from the status in PepcDB or PDB records
row,Sequence,soluble on expression in E. coli
1,MDTQNLPDQIIPIFMSFDKNYALGASVSLYSLLSHASRHTSMIDFSPLNQSNKLLGANIVYKIHCLVKGVTLEQQNKLLKTIAPFKKFASLEFIHINSLDHSIESYLNKSCSKRYGGLLVLCRLLLASLFPNYSKIISIDADTVFLGDVASAYFALDNDPTKSLGMVRDTFSHLSFEAFCDFCKRACKNFKIDFSRFSPDELKRIHQGFNMGFLVAHLDRWRQDGFEKTALEFLKTRGKDLFYPEQCLVNMVFWERILELPIYYNCYSDFFKEHYPKNIIMLHFIKYKPWRSVSSLNGRLICYEAEASFWLANLFHTPFKNDFFKERLEMAKDQQMQSFKTHIRSQTIRNYLGFRVKNILKKVFKLSLEHHHHHH,soluble
2,MLSHETIWSAIDTLAERHQLTPSALAKRAGLDPTSFNKSKRFGPDGRKRWPSTESVSKVLEATGASVDQFFGYAFGRAQTMQPSGADNAIPLLGFAQAGSGGFFDDGGFPAGQGWDVVEFPSSPERKQGVYALEVQGESMMPLYRDGDILIVEPGAPVRRGDRVVLKSRDGEVMAKVLARQSPKNIELLSLNPEHPNRSFDMADVEWIARIIWASQ,not soluble
3,MASHMERDPQVAGLKVPPHSIEAEQSVLGGLMLDNERWDDVAERVVADDFYTRPHRHIFTEMARLQESGSPIDLITLAESLERQGQLDSVGGFAYLAELSKNTPSAANISAYADIVRER,soluble
4,MGSDKIHHHHHHMEFQLDKDWRLQPIKGATGQTYMGIKETEKVFIKRNTSPLLAALSKEGLAPKMIWTKRTANGDVLTAQEWLEGRLLHADEIGKRNDVIDVLYQLHHSNLLKDMLKKIGGEVCTPLTMLKEYKRQLPKELKRNSYLKEVITYLYNHLPEYPETSYVAVHGDVNHRNWLVSNNYLYLVDWDSVMVADPAVDLGMILSHYVPRSGWNQWLLSYGLIPNESTVQRIYWYGLFSFLQEIVRHHQEGERRAMTAEILQLKRMFSI,not soluble
5,MASGDITRYVITVTFHEDSLTEINELNNHLTRSGFLLTLTDDEGDVHELGTNTFGFVSAQSADEIKALVAGLAKSALDKDVDITVATWEAWSKNAQ,not soluble
6,SAFQAAAARLGAPVSHDFCAISLSDLMTPWEVIEKRIEAAASADFVTAVYNPRSRDRYWQIHRFRELFLRHRSPSTPVGIVRNVTRKDESVVLTTLGEFDPDSLDMFTMMLVGNSTTF,not soluble
7,MDNPVTFSDITLLNTLATCANMTTDEVFKDFKIMANKKILKNHKYEIYYSESEKSWRTYLPDETKPNKRRPVKRKSKENLEKEIIRFYIEKQKAENRQNVTLEELYAEWLLYKRDYTSVKAKTIQEYVSEWNRFFKDTELVKMKIGEIKPITLIRFFREATKDRQFTHKRVSNARSVLNGIMSYAIEEEIISHNPVSDVNFKQFTYKPVEVQSDNVFSRDDTHKLLNYLRCIIEPYSLAIQLSFYLFIRVGETKAIRWEDIDYNNRLVYFHRQATCERTLNDDLTFSSRKVKVVNQMKGNTSHGFRKQFLTDEALKILHKAKELNPNGIYVFEPNGEIMTTDSFNRRLKKYCKEAGVPYHSSHKIRFYNASTAFDGNNLTTLSYLMGHSETATTLHYLRNVNKRKNDRLAFQNLGISS,not soluble
8,MGSDKIHHHHHHMANKIKVLLTGAGSTLGREILAQLLTMRKVFEISVLDIKRGHTMAFFEKYKKEIHIFYGDCSVQDNTVEACKGQDFVIHCQSLEKANADKRLRLAEDVNTMGTRYIIENLERFSPGAYLLYISTVGVYGDRLKAPMISADNMTCPSMGDYDALTKLQAEKLVQESSLEWTIYRPGIILGHDSSLLNSSVFCMPLATRFETVHIRDLASACVKAYDHKASLWGRTYNVGGGEACRIVYSDYIRRLFKLLGLGYPEFPDRAFATRNRFGGYFADGDALEAILHFRRHTIEDYFKELAAQQPILKKLANKIFVGVQRKSLEGKSAPLRAIKENDRAKKKYYF,not soluble
9,MDSLNNGWFSELQADLWPGQSFSLKVKEVIHKEKSRFQDIQIVETETYGRCLILDGIIQCTARDEFSYQEMISFLPLCAHPNPKKVLIVGGGDGGVAREVVKHPLVEEVHQVEIDDRVVELSKQYLPAMACGFANEKLKLTIGDGFDYMKKHKNEFDVIITDSSDPIGPAVSLFQESYYELMKHALKDDGIVCSQGGSFWLDLDYIKKTMSGCKEHFAKVAYAVTSVPSYPCGHIGFVMGSLNKNQDFATPKLGKSEIDSIDLRYYSSEVHSAAFALPRWVQKHFYELEHHHHHH,not soluble
10,MLFCTNIAIAQGTIEDYRRAYSAGEKFSANKVSYSNVNPEWIGKTHYFWYVRNTPDGRIYVLVDADTQNRKDLFDHKLVAAALSEASGRKIEATSLYLDRLSVNNGLDTLHFVFNNHRWMYVIDKNQLTDEGALPTPRKQRHWMETDDEKTAAPVTSPDKKYTAFIKNHNIYVKETATGKEKQLSLDGTLGNYYSAYIRWSPDSKKSLPARFVR,not soluble
11,MSHPSHVRALCASLCLGAGLPVHAGHVHAGQGFLEDAKASLTARNFHLHRNFVGDASQGKAEEWTQSFILDARSGFTQGSVGFGLDVLGLYSLKLDGGKGTAGTQLLPIHDDGRPADDFGRLAVAGKLRVSNSELKIGEWMPVLPILRSDDGRSLPQTFRGGQLSANEIAGLTLYAGQFRGNSPRNDASMQDMSLFGRPAATSDRFDFAGGEYRFNGERSLLGLWNAELKDIYRQQYLQLQHSQPLGDWLLGANLGGFRGRDAGSARAGKLDNRTVSALFSARYGLHTLYLGLQKVSGDDGWMRVNGTSGGTLANDSYNASYDNPGERSWQLRYDFDFVGLGLPGLTFMTRYLHGDHVRLAGVTDDGSEWGRESELGYTLQSGAFKRLNVRWRNSSQRRDWGSNTRFDENRLIVSYPLSLL,not soluble
12,MARPNFRYTHYDLKELRAGTTLEISLSSVNNVRLMTGANFQRFTELLDFKYLGGVAKKSPIRIAVPETMHWHLIIDAEGHSGLAESSVKMLPAQPQATLTRKAS,soluble
13,SSFQTSLPRLPVPAVKDTVSRYLESVRPLMKEGDFQRMTALAQDFAVNLGPKLQWYLKLKSWWATNYVSDWWEEYIYLRGRGPIMVNSNYYAMEMLYITPTHIQAARAGNTIHAILLYRRTVDREELKPIRLLGSTIPLCSAQWERLFNTSRIPGEETDTIQHVKDSRHIVVYHRGRYFKVWLYHDGRLLRPRELEQQMQQILDDTSEPQPGEAKLAALTAADRVPWAKCRQTYFARGKNKQSLDAVEKAAFFVTLDESEQGYREEDPEASIDSYAKSLLHGRCFDRWFDKSITFVVFKNSKIGINAEHSWADAPIVGHLWEYVMATDVFQLGYSEDGHCKGDKNPNIPKPTRLQWDIPGECQEVIETSLSSASFLANDVDLHSFPFDTFGKGLIKKCRTSPDAFIQLALQLAHYKDMGKFCLTYEASMTRLFREGRTETVRSCTTESCNFVLAMMDPTTTAEQRFKLFKIACEKHQHLYRLAMTGAGIDRHLFCLYVVSKYLAVDSPFLKEVLSEPWRLSTSQTPQQQVELFDFEKYPDYVSCGGGFGPVADDGYGVSYIIVGENFIHFHISSKFSSPETDSHRFGKHLRQAMMDIITLFGLTANSKK,soluble
14,YKEFKLKRVYYSGYIPINHEDHALPAVGSAPPLLRENRLYQSDWLMRFYGFAADEIVNPQHPNLDLDVDPKLGWALRHPEQFPVDINRADYRMILRVPGIGVRSAKKIMHARRFGALRIDQLKRMGVAYSRAQHFIYCID,not soluble
15,MLEILGKASSINVRKVLWTCAELDLPYRREDWGSGFRDTHAAEFLALNPNAMVPVLRDGELVLWESNSIIRYLANRYAGERLYPQQAAPRARVDQWLDWQASDLNRSWSYAFMSLVRQSPAHRDAAQVEASLRGWTGFMEILEGQLLRTGAYVAGETFSLADIAIGLSVNRWYETPFEHPSLPAVRAYYERLGAR,not soluble
16,MNVVSNTQLLEQRIADFFTLSDEHKKARVLLDTLACSCPARIFGGMVRDLGLYGVDGFSSDLDIVIGRSREELFQTLAELPVKQLRFNKFGGIRFRYHDFEFDIWNLNETWAFQEKLIFCEDESSLLNEVA,not soluble
17,MIPIEIDSGSGFCFGVVNAIRHAEKQLEKSSDKLYCLGDIVHNTLEVERLGKKGLETIDYDAFSRLRGAKVLLRAHGEPPEIYRMAGENGVTIIDATCPVVLRLQNKIKSRYEATRSLGAQVVIYGKRGHAEVNGLVGQTEGTAIVIESEEELDKIDYTRPVILFSQTTKSLEGFGQIIDSISTRMQPGVTFEHHDTICRQVANRIPHIGAFATAHELVFFVAGEKSSNGKVLFGHCLAANPRSIFISSPEVIVPDMLVPLPASIGICGATSTPRWQMEEVASHIKALLLEHHHHHH,soluble
18,SKLTRKMVLTRAKASELHSVRKLNCWGSRLTDISICQEMPSLEVITLSVNSISTLEPVSRCQRLSELYLRRNRIPSLAELFYLKGLPRLRVLWLAENPCCGTSPHRYRMTVLRTLPRLQKLDNQAVTEEELSRALSEGEEITAAPEREGTGHGGPKLCCTLSSLSSAAETGRDPLDSEEEATSGAQDERGLKPPSRGQFPSLSARDASSSHRGRNVLTAILLLLRELDAEGLEAVQQTVGSRLQALRGEEVQEHAE,soluble
19,MEASEEVTMVNKGDDGKSGIRYYTTIEELSRAINAGLSLQDRRMSEEEAMEAAEHIINFFGYNDRVIDNMLEPEDRDSFYTMEDIGILQTEREETTLFDGREWRIHYWILNINKIMELANMQVDYKKKITNDEYKIYDEIPDDYWKVVE,not soluble
20,MSETFSGFDTAPVARVQAAFEEIAHRSMHDLSFLHPTMPVHVSDFTLFEGQWTGTVITPWMLSALIFPGPDQIWPRRTVGEKLGLQLPYGTMTFTVGELEGVSQYLACSLMSPLSRSLSPEEGVRLADDCARMLLSLPVSNPDAPQTSRRALLFGRRSCENA,not soluble
21,VANKIKLGHVHLSGCTGCLVSTADNNLGFIKILDNYADLVYSLTLADVRHVPEMDVALVEGSVCIQDHESVEEIRETREKAKIVVALGSCACYGNITRFSRGGQHNQPQHESFLPIGDLIDVDVYIPGCPPSPELIRNVAVMAYMLLEGDEDQKALAGRYLKPLMD,not soluble
22,MKIAIGSDHAGFPLKEKIKEFLKGEGHKVIDVGTHAQESTHYPIYAKEVVRAIRSGKAERGILICGTGIGMSITANKFRGIRAALCTNEYMARMSRLHNDANVLCLGERVLGVELALSIVKVWLETPFEGGRHLKRLEIISEIEDEICGENIPR,soluble
23,MAQPPDGRLTYMTQHQRVMEWLNSIDRPNGIHFLDMDAKSLLVLMNTLDRKTRSNLEKSCKILLSISRSDKPHLQQLCLHFTTTWNHDQFAEITAQFSPEHSFHSIFMSKKKSPNWITGGWSIDRQKNITSGIFQPEKLRLSATFVERTSRYIEYWLRNFQIDTLRIKVENLIPGKENSIQQSNYTGEIPPLKLKKLIIHGANNIRFINNWLDNLVPNAIDPLDDKKKIIDVEFLDVGKLDQIFHHSLMTTGKVNLTFNRVSTHFTRKTLNFVNSPMINIVARQVPSEAVNSFLKRWCRGEIIEDFQYLHLMETTQWPSQQMHMMDALSGLRYQIVDLKTDVKLRILEKQKEFPKPAQIFQITGPRPGFCAHFGNQFIFEIPKTEDIQHILVNPPISQNTFDEYERQKNRIYMELFRKRLIRLFN,not soluble
24,MGSDKIHHHHHHVLADAVAWTARTLPVRPSVPVLAGMLLDADDVDGHQRLTLSSFDYEVSAQVSVDVDIDEPGRILVSGKLLAEIVRNLPPQTVEVSTDGAKVVVSCGSAKFTILTLPVEDYPTLPAMPALTGSVLSDTFAAAVSQVAVAAGRDDTLPMLTGVRIEIEGSTVTLVSTDRYRLAVRELTWTPEDPNVSAVALVPAKTLADTAKSLTGGAQISIALSTAENGGEGMIGFEGGGRRTTTRLLEGEFPKYRKLLPESFNSVAEVQKNEFIEAVKRVSLVAERNTPLRLSFTSDRLVLEAGTGEEAQAVEELSATLEGDDIQIAFNSTFLLDGLNAIESDVAHLQFTTSTKPAIITGKPADDGTASDYRYLIMPVRISN,not soluble
